The source of these data is article PMC5758809.

Residue numbers refer to the chain shown, from its start. Names and notes keep the numbering of the source.

One test addresses recombinant PP1 (UniProt P62139).
The target in another test is native PP1 (rabbit) (UniProt P62139).

UniProt P62139, sequence (P62139 whole entry): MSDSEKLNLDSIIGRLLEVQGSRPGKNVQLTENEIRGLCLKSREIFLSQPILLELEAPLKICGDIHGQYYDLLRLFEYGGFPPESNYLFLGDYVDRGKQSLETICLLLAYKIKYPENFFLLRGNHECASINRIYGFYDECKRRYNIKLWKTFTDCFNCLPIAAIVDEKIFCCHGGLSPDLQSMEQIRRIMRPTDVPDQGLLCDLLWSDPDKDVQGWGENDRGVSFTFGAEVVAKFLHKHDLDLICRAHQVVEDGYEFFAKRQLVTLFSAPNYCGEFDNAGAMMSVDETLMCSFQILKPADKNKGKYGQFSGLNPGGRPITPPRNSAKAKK

B1: PKA-thiophosphorylated form of inhibitor-1 (natural protein)
chain: MEQDNSPRKIQFTVPLLEPHLDPEAAEQIRRRRPTPATLVLTSDQSSPEIDEDRIPNPHLKSTLAMSPRQRKKMTRITPTMKELQMMVEHHLGQQQQGEEPEGAAESTGTQESRPPGIPDTEVESRLGTSGTAKKTAECIPKTHERGSKEPSTKEPSTHIPPLDSKGANSV
modifications: thiophosphorylated Thr35
On to B1, for which the IC50 for inhibition of recombinant PP1 phosphatase activity ([32P]phosphorylase a as substrate) in the test with recombinant PP1 stood at 980 nM. The molecule also registered an IC50 for inhibition of native PP1 phosphatase activity ([32P]phosphorylase a as substrate) in the test with native PP1 (rabbit) of 19 nM.

B2: PKA-thiophosphorylated form of inhibitor-1[I10A;F12A] (natural protein)
chain: B1 chain with I10A, F12A
modifications: thiophosphorylated Thr35
Turning to B2, the IC50 for inhibition of recombinant PP1 phosphatase activity ([32P]phosphorylase a as substrate) with recombinant PP1 came out at 553 nM. Besides, the IC50 for inhibition of native PP1 phosphatase activity ([32P]phosphorylase a as substrate) with native PP1 (rabbit) was determined as 240 nM.
